Results taken from patent US6750197B1, “Activators of endothelial nitric oxide synthase” (Rensselaer Polytechnic Institute, priority 1996, dated 2004).

Key:
NNOS [1] = biological target: T1, NNOS (Rattus norvegicus, UniProt P29476); experiment: CAM binding: radiolabeled CAM trapped on a membrane by NNOS adhesion; conditions: no peptide: 774 ± 40
Procedure: (§1) JX series polypeptides are approximately 30-mers derived from ENOS and NNOS inhibitory polypeptides. B058 series are shorter (6-mers to 15-mers) peptides derived from flanking loops or from shorter segments of inhibitory polypeptides. CAM binding data represents counts from radiolabeled CAM trapped on a membrane by NNOS adhesion. INOS activity was assayed by measuring oxidation of ferrous myoglobin by product NO.

[2] = biological target: T2, native INOS (from immunostimulant-activated rat aortic smooth muscle cells) (Rattus norvegicus, UniProt Q06518); experiment: NOS activity, kinetic 96-well microtiter plate assay, Fe2+-myoglobin oxidation; assay type: biochemical; conditions: peptide 100 μg/ml; mean ± SEM, triplicate
T2 construct: endogenous in cells
Procedure: (§2) NOS activity measurements were performed using recombinant rat NNOS (purified from overexpressing HEK293 cells), recombinant bovine ENOS (purified from overexpressing E. coli) or native INOS (from immunostimulant-activated rat aortic smooth muscle cells). Activity was determined with 1-20 pmole of NOS using a kinetic 96-well microtiter plate assay based on the kinetics of NADPH consumption (NNOS and ENOS) or Fe^2+-myoglobin oxidation. Radioligand binding was performed after incubation of 1-2 pmole of NOS for 15 minutes at 23° C. with either Bolton-Hunter labelled [125I]-calmodulin (1 nM) or [3H]-N-nitro-L-arginine (200 pM) and the indicated peptides. Values are means ±SEM of triplicate determinations.

NNOS [3] = biological target: T1, NNOS; experiment: Effects on calmodulin binding (Example 3), NNOS
Excerpt: (§3) In addition to the inhibition of enzyme activity, it is possible to modulate CAM binding to NOS with synthetic homologs of the control site elements. The relationship between enzyme inhibition and CAM binding in the presence of control site elements can be complex. In other systems, antibodies to inhibitory elements sometimes induce partial CAM independent activation, while preventing CAM dependent activation. It is important to remember that CAM binding is only a means to displace the inhibitor.
(§4) While a number of the polypeptides could modulate CAM binding, the series containing the RRKRK (SEQ ID NO: 10) motif was the most instructive. […] CAM binding was decreased almost to background levels, with effects seen at the 10 uM level.

NOS [4] = experiment: Radioligand binding of [125I]-calmodulin to NOS; set-up: scale not given here; conditions: peptide 100 μg/ml; ligand 1 nM, 15 minutes at 23° C.; mean ± SEM
Procedure: as §2

recombinant bovine ENOS = biological target: T3, recombinant bovine ENOS (Bos taurus, UniProt P29473); experiment: NOS activity, kinetic 96-well microtiter plate assay, NADPH consumption; assay type: biochemical; conditions: peptide 100 μg/ml; mean ± SEM, triplicate
T3 construct: made in house; host or cells: E. coli
T3 sequence (P29473 1-1205): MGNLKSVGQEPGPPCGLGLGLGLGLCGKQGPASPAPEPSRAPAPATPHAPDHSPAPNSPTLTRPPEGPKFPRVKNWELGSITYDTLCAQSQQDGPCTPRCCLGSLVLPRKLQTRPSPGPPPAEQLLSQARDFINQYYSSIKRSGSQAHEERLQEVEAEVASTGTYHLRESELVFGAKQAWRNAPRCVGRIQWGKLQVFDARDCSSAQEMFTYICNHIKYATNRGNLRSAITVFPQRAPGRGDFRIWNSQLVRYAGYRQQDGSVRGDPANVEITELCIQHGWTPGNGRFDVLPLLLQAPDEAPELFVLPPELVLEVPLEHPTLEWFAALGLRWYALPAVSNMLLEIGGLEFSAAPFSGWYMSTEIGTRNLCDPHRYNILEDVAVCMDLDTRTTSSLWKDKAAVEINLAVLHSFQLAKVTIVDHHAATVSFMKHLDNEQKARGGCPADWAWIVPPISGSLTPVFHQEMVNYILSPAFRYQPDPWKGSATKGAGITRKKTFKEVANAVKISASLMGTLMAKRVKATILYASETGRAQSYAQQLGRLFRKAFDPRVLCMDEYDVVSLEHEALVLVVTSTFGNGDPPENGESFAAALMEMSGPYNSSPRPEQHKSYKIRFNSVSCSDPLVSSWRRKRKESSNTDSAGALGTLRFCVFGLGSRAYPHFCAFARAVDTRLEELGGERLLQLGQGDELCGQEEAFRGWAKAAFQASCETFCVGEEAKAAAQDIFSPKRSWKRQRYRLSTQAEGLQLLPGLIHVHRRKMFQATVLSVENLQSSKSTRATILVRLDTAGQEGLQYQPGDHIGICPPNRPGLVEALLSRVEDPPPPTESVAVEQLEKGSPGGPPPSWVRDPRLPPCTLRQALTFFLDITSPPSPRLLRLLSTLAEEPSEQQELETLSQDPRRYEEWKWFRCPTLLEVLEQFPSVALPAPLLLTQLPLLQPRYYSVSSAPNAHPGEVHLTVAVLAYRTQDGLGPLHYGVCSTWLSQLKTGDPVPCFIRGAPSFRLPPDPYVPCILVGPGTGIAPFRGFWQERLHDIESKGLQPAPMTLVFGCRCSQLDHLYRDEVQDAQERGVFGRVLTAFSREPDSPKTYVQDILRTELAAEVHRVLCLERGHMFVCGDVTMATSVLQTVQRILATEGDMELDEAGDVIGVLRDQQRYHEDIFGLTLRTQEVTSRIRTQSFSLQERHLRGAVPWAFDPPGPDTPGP
Procedure: as §2

recombinant rat NNOS = biological target: T4, recombinant rat NNOS (Rattus norvegicus, UniProt P29476); experiment: as above; assay type: biochemical; conditions: peptide 100 μg/ml; mean ± SEM, triplicate
T4 construct: made in house; host or cells: HEK293 cells
T4 sequence (P29476 whole entry): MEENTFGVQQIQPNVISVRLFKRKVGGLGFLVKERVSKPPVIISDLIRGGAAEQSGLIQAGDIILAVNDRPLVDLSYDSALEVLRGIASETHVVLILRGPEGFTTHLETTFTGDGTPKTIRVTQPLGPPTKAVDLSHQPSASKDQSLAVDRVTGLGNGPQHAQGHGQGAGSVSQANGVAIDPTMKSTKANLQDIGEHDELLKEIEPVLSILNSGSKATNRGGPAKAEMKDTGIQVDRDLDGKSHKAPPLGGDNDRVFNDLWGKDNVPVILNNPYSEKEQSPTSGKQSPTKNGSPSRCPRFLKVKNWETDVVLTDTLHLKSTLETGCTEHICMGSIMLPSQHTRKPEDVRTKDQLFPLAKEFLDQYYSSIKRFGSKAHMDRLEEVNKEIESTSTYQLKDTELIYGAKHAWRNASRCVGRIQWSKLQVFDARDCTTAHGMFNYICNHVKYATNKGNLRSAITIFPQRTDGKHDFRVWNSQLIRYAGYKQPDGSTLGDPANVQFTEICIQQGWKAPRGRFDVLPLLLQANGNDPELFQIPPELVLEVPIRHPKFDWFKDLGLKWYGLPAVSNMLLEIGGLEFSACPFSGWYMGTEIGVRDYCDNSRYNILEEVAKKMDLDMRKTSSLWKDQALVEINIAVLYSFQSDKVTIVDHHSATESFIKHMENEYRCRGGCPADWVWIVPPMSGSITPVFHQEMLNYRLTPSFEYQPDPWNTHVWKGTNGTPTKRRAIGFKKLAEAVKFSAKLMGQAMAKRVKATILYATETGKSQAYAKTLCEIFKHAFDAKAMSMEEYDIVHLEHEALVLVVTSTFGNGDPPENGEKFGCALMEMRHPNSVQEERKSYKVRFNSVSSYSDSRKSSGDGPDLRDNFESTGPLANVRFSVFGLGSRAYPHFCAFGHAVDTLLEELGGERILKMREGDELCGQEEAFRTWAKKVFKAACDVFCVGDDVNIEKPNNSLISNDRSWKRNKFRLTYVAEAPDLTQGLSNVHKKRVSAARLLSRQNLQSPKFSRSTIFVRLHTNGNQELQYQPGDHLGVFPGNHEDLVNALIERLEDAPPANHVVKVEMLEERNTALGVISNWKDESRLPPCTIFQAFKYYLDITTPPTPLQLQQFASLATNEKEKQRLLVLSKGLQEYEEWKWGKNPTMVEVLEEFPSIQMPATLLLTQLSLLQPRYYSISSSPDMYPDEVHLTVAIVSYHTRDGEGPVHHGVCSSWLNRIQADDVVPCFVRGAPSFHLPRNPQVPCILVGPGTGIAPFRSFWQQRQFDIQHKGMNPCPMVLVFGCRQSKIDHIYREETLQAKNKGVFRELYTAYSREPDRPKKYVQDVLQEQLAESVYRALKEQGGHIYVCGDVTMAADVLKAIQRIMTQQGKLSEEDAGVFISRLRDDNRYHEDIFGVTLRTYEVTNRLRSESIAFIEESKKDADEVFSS
Procedure: as §2

INOS = INOS (Rattus norvegicus, UniProt Q06518); experiment: INOS activity by oxidation of ferrous myoglobin by product NO; assay type: biochemical; set-up: unit not given here; conditions: peptide 0.1 mg/ml; no peptide: 14.9 ± .56
Procedure: as §1

NOS [5] = experiment: Radioligand binding of [3H]-N-nitro-L-arginine to NOS; set-up: scale not given here; conditions: peptide 100 μg/ml; ligand 200 pM, 15 minutes at 23° C.; mean ± SEM
Procedure: as §2

ENOS = biological target: T5, ENOS (Bos taurus, UniProt P29473); experiment: Effects on calmodulin binding (Example 3), ENOS
T5 sequence (P29473 2-1205): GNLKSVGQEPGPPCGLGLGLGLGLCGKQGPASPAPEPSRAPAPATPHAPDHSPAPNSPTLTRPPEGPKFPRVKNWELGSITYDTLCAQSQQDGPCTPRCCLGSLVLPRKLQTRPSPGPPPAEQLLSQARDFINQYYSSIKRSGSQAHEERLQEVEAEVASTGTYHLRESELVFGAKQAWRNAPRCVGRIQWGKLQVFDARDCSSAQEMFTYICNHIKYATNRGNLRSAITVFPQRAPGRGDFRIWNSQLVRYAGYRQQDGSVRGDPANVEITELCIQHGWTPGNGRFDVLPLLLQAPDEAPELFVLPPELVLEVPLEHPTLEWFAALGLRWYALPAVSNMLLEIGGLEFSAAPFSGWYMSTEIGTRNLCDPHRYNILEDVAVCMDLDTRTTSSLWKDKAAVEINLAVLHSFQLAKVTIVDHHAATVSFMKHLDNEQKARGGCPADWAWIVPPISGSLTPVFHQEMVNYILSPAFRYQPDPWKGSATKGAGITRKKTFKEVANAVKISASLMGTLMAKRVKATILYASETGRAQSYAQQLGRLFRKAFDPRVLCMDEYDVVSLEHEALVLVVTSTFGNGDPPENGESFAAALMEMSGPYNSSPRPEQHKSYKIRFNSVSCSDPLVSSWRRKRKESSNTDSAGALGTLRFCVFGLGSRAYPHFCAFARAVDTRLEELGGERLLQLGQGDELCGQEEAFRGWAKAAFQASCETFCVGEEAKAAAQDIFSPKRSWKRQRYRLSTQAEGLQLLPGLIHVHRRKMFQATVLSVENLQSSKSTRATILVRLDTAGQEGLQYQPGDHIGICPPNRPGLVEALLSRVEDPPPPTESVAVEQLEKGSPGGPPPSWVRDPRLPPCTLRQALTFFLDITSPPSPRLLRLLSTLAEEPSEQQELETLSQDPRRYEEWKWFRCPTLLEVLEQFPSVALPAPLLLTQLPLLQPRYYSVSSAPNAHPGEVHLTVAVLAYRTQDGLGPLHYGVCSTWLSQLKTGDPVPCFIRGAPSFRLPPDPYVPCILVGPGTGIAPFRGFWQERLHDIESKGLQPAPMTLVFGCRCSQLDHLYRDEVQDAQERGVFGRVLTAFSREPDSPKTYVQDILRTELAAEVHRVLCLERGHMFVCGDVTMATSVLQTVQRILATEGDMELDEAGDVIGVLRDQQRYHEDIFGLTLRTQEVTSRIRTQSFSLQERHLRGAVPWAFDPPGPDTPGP
Excerpt: as §3, §4

T1 sequence (P29476 whole entry): as the sequence (P29476 whole entry) above

Sequence: SSWRRKRKESS [BO58-08, 13; b114 cites it by residues 4-11]
- NNOS CAM Binding (NNOS [1]): 152 ± 26 counts
- NOS Activity (% of control) INOS [2]: 92.1 ± 1.3 % of control
- effect on CAM binding to NNOS (in words) (NNOS [3]): potent CAM antagonist
- level at which effects on CAM binding are seen (NNOS [3]; NNOS): 10 µM
- Ligand binding to NOS [125I]-CAM (NOS [4]): 0.0 ± 0.5
- NOS Activity (% of control) ENOS (recombinant bovine ENOS): 27.7 ± 2.0 % of control
- NOS Activity (% of control) NNOS (recombinant rat NNOS): 19.1 ± 0.9 % of control
- INOS Activity 0.1 mg/ml (INOS): 14.5 ± .70
- Ligand binding to NOS [3H]-NHA (NOS [5]): 120.7 ± 12.7
- effect on CAM binding to ENOS (in words) (ENOS): potent CAM antagonist
- level at which effects on CAM binding are seen (ENOS; ENOS): 10 µM
